Experimental data published in paper PMC4909234.

Target: human complement factor H (CFH) (human) (UniProt P08603)
Experiment: ELISA; […] (20 mM HEPES, 50 mM NaCl, pH 7.4) […]

Sequence of human complement factor H (CFH) (human) (P08603 19-1231): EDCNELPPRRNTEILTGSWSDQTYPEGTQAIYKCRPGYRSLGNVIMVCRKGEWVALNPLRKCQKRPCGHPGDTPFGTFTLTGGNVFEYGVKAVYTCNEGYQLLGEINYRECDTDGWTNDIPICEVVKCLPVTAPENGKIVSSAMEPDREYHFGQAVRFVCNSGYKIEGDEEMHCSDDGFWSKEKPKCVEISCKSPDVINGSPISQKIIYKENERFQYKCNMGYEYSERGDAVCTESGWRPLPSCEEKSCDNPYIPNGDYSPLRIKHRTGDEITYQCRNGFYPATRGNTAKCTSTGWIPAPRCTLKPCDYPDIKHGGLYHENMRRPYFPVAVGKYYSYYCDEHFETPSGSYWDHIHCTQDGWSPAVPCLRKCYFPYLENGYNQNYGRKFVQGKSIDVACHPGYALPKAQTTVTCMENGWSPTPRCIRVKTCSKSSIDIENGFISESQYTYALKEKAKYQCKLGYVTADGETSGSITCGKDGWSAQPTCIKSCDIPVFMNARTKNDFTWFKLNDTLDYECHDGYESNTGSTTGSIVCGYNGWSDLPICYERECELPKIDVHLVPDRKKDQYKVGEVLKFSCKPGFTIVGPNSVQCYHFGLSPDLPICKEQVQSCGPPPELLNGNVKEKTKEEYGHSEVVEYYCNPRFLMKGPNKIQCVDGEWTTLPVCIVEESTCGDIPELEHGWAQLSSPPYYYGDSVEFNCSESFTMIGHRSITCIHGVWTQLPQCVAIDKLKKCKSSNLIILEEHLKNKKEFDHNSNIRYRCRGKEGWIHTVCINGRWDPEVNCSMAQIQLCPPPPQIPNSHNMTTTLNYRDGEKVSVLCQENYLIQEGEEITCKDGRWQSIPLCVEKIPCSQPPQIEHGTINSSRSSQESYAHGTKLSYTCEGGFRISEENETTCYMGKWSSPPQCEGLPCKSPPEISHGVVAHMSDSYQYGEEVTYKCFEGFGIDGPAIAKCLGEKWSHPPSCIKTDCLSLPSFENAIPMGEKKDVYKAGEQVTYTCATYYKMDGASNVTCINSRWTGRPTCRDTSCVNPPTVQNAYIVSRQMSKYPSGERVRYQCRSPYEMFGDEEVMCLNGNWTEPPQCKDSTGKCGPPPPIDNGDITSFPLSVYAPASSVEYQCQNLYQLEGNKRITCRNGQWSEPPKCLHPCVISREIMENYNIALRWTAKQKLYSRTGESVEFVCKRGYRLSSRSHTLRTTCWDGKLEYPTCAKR

With “Recombinant BclA protein (rBclA), His-tagged (from UniProt Q81JD7 1-382) (natural protein)” as the substance, how does the Kd read?
The Kd was 910 nM.
